Measured values taken from US20140249073A1.

Tests used:
[1] = target: T1, fluorogenic peptide substrate decanoyl-LTPTAY(NO2)A-ASK(abz)DD
T1 chain: LTPTAYAASKDD

[2] = target: T2, fluorogenic peptide substrate decanoyl-LSSPAY(NO2)A-ADK(abz)PD
T2 chain: LSSPAYAADKPD

B1: Full length His-tagged S. aureus SPase (protein)
chain: MKKELLEWIISIAVAFVILFIVGKFIVTSYTIKGESMDPTLKDGERVAVNIIGYKTGGLEKGNVVVFHANKNDDYVKRVIGVPGDKVEYKNDTLYVNGKKQDEPYLNYNLKHKQGDYITGTFQVKDLPNANPKSNVIPKGKYLVLGDNREVSKDSRAFGLIDEDQIVGKVSFRFWPFSEFKHNFNPENTKN
Q: B1 was tested. Which “second order rate constant (Kcat/Km) of substrate cleavage” value [1] did it give?
A: Its value is 10^5 M^-1 s^-1.

Q: What about the “second order rate constant (Kcat/Km) of substrate cleavage” value [2] of the same protein?
A: Its value is 10^5 M^-1 s^-1.
